From the supplement of paper PMC10567573

B1: CAMK2D (parent)
chain: IVRLHDSISEEGFHYLVFDLVTGG
B2: PTPN9 (parent)
chain: IDFLRVVRNQQSLAVSNMGARSKG

Variants of: B1
Assay: protein stability index of a GFP-peptide fusion (GPS, HEK-293T) (PSI 1-6); higher = more stable
Conditions: c terminus: a fixed tail appended
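Further: lentivirally expressed fusions sorted by FACS into six bins by GFP to DsRed ratio, PSI derived from sequencing read proportions per bin multiplied by bin number.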

Protein stability index: each site, then its substitutions
V2: K 1.51; A 2.29; D 1.79; L 2.69; E 2.3; I 3.28
I1: E 2.24; V 2.13; H 3.43; G 1.94; P 1.25; S 3.07; N 1.75; K 2.05; T 2.07; M 3.44; F 1.06

Variants of: B2
Assay: as above
Conditions: c terminus: a fixed tail appended

Protein stability index, by site and new letter:
D2: E 2.54; Q 1.88; T 2.05; P 2.54; I 2.35; Y 1.78; L 1.53; R 2.03; A 1.82; C 2.06; M 1.38; F 2.33; K 1.42
R5: G 2.81; M 2.81; F 2.88; E 3.47; T 2.45; N 3.24; H 3.15; L 2.38; I 2.69; W 2
G24: E 2.95; Q 2.72; I 2.3; T 2.63; W 1.76; Y 3.1; V 2.45; N 2.46; F 1.84
R21: H 2.67; S 2.37; T 1.66; K 2.4; L 1.7; E 2.3; F 2.45; Q 2.18; Y 2.08; D 2.54; N 2.65; A 2.6; G 3.16; I 2.14; M 1.77; V 2
K23: I 1.72; Y 1.92; H 1.75; F 1.51; W 1.59; Q 3.29; S 1.68; C 1.88; T 1.32; N 2.02; M 1.91; P 2.09; A 2.01
A20: T 2.06; P 2.57; E 1.92; H 2.38; C 2.6; W 2.32; Q 2.25; M 2.32; V 2.42; G 2.43; L 2.21; D 2.57; Y 2.44
V6: T 3.23; H 2.67; R 2.38; Y 2.13; M 1.99; W 2.74; P 3.31; D 3.26; Q 2.8; L 2.5; E 3.36; G 3.53
S16: C 1.99; E 2.64; Y 2.38; D 2.48; R 2.78; V 1.9; F 2.31; A 3.26; W 1.46; K 2.59; M 1.83; P 2.54; I 1.74; L 1.89
I1: A 3.18; K 3.59; G 3.72; F 2.75; M 2.96; Y 3.47; S 3.1; L 2.95; E 4; V 3.03; C 2.8; D 4.38; W 2.88; Q 4.35
N9: S 2.15; L 1.61; I 1.67; Y 1.93; R 2.44; Q 2.14; T 2.28; K 2.58; G 2.3; V 1.89; M 1.88; E 2.67; A 1.94; P 2.78
N17: D 2.63; S 2.74; G 2.21; R 2.45; Y 1.93; K 2.24; I 2.09; L 2.22; F 2.12; P 2.27; H 2.9; Q 2.42; V 2; M 1.65; A 2.7; W 2.14; C 2.1; T 2.71
Q11: R 2.31; K 2.26; W 1.34; T 2.29; D 2.57; F 1.95; I 1.8; V 1.67; L 1.81; Y 2.12; A 1.99; S 2.31; E 2.35
Q10: C 1.89; H 2.49; M 2.54; F 2.35; N 2.39; T 2.4; S 1.43; D 2.63; L 2.2; Y 2.35; V 2.02; P 2.74; E 2.87
G19: A 2.47; H 2.57; D 2.35; I 2.19; L 2.12; T 2.27; E 2.91; Q 2.96; K 2.58; S 2.08; F 2.94; V 2.13; N 2.72; Y 2.16
L13: T 2.57; H 2.45; V 2.85; K 2.75; G 3.24; E 3.58; P 2.96; Q 3.3; M 2.51; R 2.34; S 2.7; I 2.31; C 2.14; F 2.34; A 2.73
V7: D 3.16; A 3.7; Y 2.23; K 2.66; P 2.94; Q 2.97; H 3.26; G 2.96; F 1.84; S 3.61; W 2.91; R 3.37; E 3.73
A14: C 2.01; D 2.17; H 2.48; R 2.13; S 2.23; T 2.64; K 2.13; Q 2.09; E 1.95; V 2.22; P 2.7; G 2.3; F 2.23; M 2.66
M18: D 3.05; F 2; T 3.23; L 2.67; Q 2.73; C 2.51; A 3.02; P 2.57; R 3.35; G 2.85; H 2.91; K 2.87; Y 2.04; E 3.28
F3: E 4.29; C 3.89; K 3.93; R 3.69; L 2.47; W 2.17; A 3.55; P 4.2; Y 2.4; I 2.34
L4: Q 3.37; N 3.48; A 3.04; S 3.6; H 3.35; V 2.6; P 3.86; D 4.58; M 2.48; G 3.69; T 3.33; Y 1.89; W 1.72
S12: Y 1.8; L 2.31; T 2.15; E 2.65; A 2.04; W 1.69; F 2.26; C 1.89; N 2.1; M 2.22; K 2.55; R 2.52; I 1.99; G 2.48; V 2.34; P 2.46; Q 2.02
S22: K 2.46; V 2.03; G 2.27; L 2.07; C 2.51; W 2.4; A 2.2; P 2.4; E 3.13; I 2.05; N 2.57
R8: L 2.04; G 2.37; I 2.65; Y 1.78; N 2.27; F 1.47; M 1.46; P 2.51; Q 2.32; E 3; V 1.88; A 2.54; K 2.26
V15: P 2.36; I 1.97; L 2.41; R 2.31; F 2.18; C 2.28; T 2.69; H 2.56; G 2.83; N 2.86; D 2.52
